Experiments:
[1] = target: T1, PD-1 antigen (ELISA of Example 2) (human, UniProt Q15116 25-167, limits assumed); test: ELISA, signal on PD-1 antigen; note: test concentration or dose not given here
[2] = target: T1, PD-1 antigen (ELISA of Example 2); test: ELISA, signal on PD-1 antigen over control
[3] = target: T2, recombinant extracellular domain of PD-L1 with C-terminal FLAG-tag (human, UniProt Q9NZQ7 19-238); test: plate binding assay, VHH against hPD-1-hFc binding to immobilised PD-L1 ECD-FLAG
T2 construct: extracellular domain; The sentence itself names no species; Immobilised through the M2 anti-FLAG antibody; not shown: C-terminal FLAG-tag

[4] = target: T3, cynomolgus PD-L1-Fc (SinoBiological) (cynomolgus, UniProt G7PSE7 19-238); test: BLI (Octet RED96), VHH on Penta-HIS sensor, cynomolgus PD-L1-Fc in solution
T3 construct: Bought; also called Cyno PD-L1; not shown: Fc carrier (and any linker) of the bought SinoBiological fusion

[5] = target: T4, human PD-L1-Fc (SinoBiological) (human, UniProt Q9NZQ7 19-239); test: BLI (Octet RED96), VHH on Penta-HIS sensor, human PD-L1-Fc in solution
T4 construct: Bought; not shown: Fc of a bought fusion protein
T4 sequence (Q9NZQ7 19-239 limits assumed): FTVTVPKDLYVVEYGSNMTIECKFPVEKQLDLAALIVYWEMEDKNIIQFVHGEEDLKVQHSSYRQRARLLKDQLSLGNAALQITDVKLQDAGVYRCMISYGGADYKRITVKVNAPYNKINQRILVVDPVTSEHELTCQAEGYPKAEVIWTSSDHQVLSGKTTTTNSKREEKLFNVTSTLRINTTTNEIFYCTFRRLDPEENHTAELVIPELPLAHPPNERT

T3 sequence (G7PSE7 entry or part of it limits assumed): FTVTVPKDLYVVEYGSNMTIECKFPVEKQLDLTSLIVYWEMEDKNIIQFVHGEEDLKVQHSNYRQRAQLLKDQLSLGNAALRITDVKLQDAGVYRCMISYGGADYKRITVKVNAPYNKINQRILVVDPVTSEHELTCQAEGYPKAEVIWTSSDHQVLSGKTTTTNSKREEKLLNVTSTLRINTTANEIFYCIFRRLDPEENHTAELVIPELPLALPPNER
T2 sequence (Q9NZQ7 19-238): as the sequence (G7PSE7 entry or part of it limits assumed) above, with T33A, S34A, N62S, Q68R, R82Q, L173F, A185T, I192T, L215H counted along it
T1 sequence (Q15116 25-167 limits assumed): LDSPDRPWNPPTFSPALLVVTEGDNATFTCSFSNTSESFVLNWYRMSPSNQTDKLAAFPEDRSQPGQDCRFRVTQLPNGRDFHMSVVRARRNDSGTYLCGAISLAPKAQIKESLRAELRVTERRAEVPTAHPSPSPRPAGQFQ

Binder | ELISA A [1] | A/control [2] | IC50 [3] [ng/mL] | Kd [4] [nM] | koff [4] [s⁻¹] | kon [4] [M⁻¹ s⁻¹] | Kd [5] [nM] | koff [5] [s⁻¹] | kon [5] [M⁻¹ s⁻¹]
2PD8 (VHH, PD-1 VHH) VHH: QVQLQESGGGSVQAGDSLRLSCTASGRTFSSLGMGWFRQAPGKEREFVSAIAWNGASTYYTESVKGRFTISRDDAKNTVYLQMNSLKPTDTAVYFCAASGLGSVVVTANEYDYWGQGTQVTVSS | 0.763 | 3.03 |  |  |  |  |  |  | 
2PD27 (VHH, PD-1 VHH) VHH: QVQLQESGGGSVQPGKSLRLSCAASGRTFSSLGMGWFRQAPGKEREFVSAIAWNGASTYYTESVKGRFTISRDDAKNTVYLQMNSLKPTDTAVYFCAASGLGSVVVTANEYDYWGQGTQVTVSS | 1.14 | 3.45 |  |  |  |  |  |  | 
2LIG27 VHH-(His)6 (pHEN6C-PelB-PD-L1 VHH-(His)6) (VHH) VHH: QVQLQESGGGVVQAGGSLRLSCTASGTIFSINRMDWFRQAPGKQRELVALITSDGTPTYADSAKGRFTISRDNTKKTVSLQMNSLKPEDTAVYYCHVSSGVYNYWGQGTQVTVSS |  |  | 9.57 | 8.74 | 0.0028 | 321000 | 7.51 | 0.0035 | 472000
2LIG97 VHH-(His)6 (pHEN6C-PelB-PD-L1 VHH-(His)6) (VHH) VHH: QVQLQESGGGLVQAGESLRLSCTASGTIFSINRMDWFRQAPGKQRELVALITSDGTPTYADSAKGRFTISRDNTKKTVSLQMNSLKPEDTAVYYCHVSSGVYNYWGQGTQVTVSS |  |  | 4.81 | 9.16 | 0.00293 | 319000 | 4.35 | 0.00198 | 423000
2LIG3 VHH-(His)6 (pHEN6C-PelB-PD-L1 VHH-(His)6) (VHH) VHH: QVQLQESGGGLVQAGGSLRLSCTASGTIFSINHMDWFRQAPGKQRELVALITSDGFPTYADSAKGRFTISRDNTKKTVSLQMNSLKPEDTAVYYCHVSSGVYNYWGQGTQVTVSS |  |  | 18.9 | 0.89 | 0.000318 | 358000 | 1.19 | 0.000448 | 373000
2LIG99 VHH-(His)6 (pHEN6C-PelB-PD-L1 VHH-(His)6) (VHH) VHH: QVQLQESGGGLVQAGGSLRLSCTASGTIFSINRMDWFRQAPGKQRELVALITSDGTPAYADSAKGRFTISRDNTKKTVSLQMNSLKPEDTAVYYCHVSSGVYNYWGQGTQVTVSS |  |  | 6.21 | 1.01 | 0.000585 | 584000 | 0.875 | 0.000634 | 729000
3LIG8 VHH-(His)6 (pHEN6C-PelB-PD-L1 VHH-(His)6) (VHH) VHH: QVQLQESGGGLVQPGGSLRLSCTASGTIFSINRMDWFRQAPGKQRELVALITSDGTPTYADSAKGRFTISRDNTKKTVSLQMNSLKPEDTAVYYCHVSSGVYNYWGQGTQVTVSS |  |  | 12.8 | 5.98 | 0.00305 | 812000 | 8.77 | 0.00419 | 484000
2LIG176 VHH-(His)6 (pHEN6C-PelB-PD-L1 VHH-(His)6) (VHH) VHH: QVQLQESGGGLVQAGGSLRLSCAASESIFSIEAMGWYRQAPGKQRELVAAIFGGGFTNYADSVKGRFTISRDNANRTVYLQMNSLKPEDTAVYYCNADLVSGSSRLYDYWGQGTQVTVSS |  |  | 5.68 | 11.3 | 0.00573 | 508000 | 6.87 | 0.00805 | 1.18e+06
2PD82 (VHH, PD-1 VHH) VHH: QVQLQESGGGLVQPGGSLRLSCTTSGFAFGSYDMGWVRQAPGKGPEWVSGINSGGRITDYADSVTGRFTISRDNAKNTLYLQMNSLKPEDTAVYYCAQGDRSSWHYYGMDYWGKGTQVTVSS | 2.97 | 4.38 |  |  |  |  |  |  | 
2LIG189 VHH-(His)6 (pHEN6C-PelB-PD-L1 VHH-(His)6) (VHH) VHH: QVQLQESGGGLVQAGGSLRLSCAASGKIFSGNDMGWYRQAPGKQRELVGIITSGGITDYADAVKGRFTISRDNAKNMMYLQMNSLKPEDTAVYYCNMRDRTIWWGQGTQVTVSS |  |  | 8.81 | 3.8 | 0.000437 | 114000 | 3.03 | 0.000524 | 174000
